According to patent publication US20200123547, “NUCLEIC ACID-BASED ASSEMBLY AND USES THEREOF” (Rheinische Friedrich-Wilhelms-Universität Bonn, published 2020):
Residue numbers refer to the chain shown, from its start.

Experiments:
[1] = target: T1, cMet (HGFR) ectodomain, cMet-Fc (human, UniProt P08581 P08581:25-932); experiment: competition; filter retention vs 32P-trCLN3; ~50 nM cMet; 1x PBS pH 7.4, 2 mM MgCl2, tRNA, BSA, 37 C; conditions: tags: Fc domain of human IgG1 fusion, R&D Systems; chain copies: 2; G4, micellar nanoconstruct above CMC 300-350 nM
T1 sequence (P08581 25-932, one chain of several): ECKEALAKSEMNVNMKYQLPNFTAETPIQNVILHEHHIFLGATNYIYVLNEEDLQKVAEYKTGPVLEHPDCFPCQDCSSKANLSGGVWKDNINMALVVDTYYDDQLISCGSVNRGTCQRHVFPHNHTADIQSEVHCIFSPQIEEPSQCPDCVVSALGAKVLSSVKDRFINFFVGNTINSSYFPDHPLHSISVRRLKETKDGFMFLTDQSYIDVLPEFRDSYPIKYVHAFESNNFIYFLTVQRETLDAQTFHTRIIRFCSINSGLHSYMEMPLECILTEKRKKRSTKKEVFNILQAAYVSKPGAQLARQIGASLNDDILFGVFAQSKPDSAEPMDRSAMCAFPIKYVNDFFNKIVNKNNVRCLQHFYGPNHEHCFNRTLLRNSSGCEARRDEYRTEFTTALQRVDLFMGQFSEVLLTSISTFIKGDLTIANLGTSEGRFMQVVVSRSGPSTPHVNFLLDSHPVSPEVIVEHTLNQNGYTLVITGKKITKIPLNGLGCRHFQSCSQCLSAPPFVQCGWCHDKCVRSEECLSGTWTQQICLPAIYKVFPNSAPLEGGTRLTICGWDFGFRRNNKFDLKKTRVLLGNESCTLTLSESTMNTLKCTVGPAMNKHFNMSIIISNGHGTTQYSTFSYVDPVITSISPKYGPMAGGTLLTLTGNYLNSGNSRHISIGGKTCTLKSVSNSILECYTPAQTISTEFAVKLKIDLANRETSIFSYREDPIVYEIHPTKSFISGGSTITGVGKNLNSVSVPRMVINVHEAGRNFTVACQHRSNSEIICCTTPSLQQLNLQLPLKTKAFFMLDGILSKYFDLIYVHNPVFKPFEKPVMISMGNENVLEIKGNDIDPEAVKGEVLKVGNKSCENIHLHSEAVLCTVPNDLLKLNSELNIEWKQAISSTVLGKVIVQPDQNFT
Method: (§1) To determine the affinity, ˜25 fmol of radiolabeled aptamer was incubated with a cMet concentration of ˜50 nM together with varying concentrations (1 μM-25 μM) of unlabeled competitor for 30 min at 37° C. in 25 μL of buffer containing 0.1 mg/ml E.coli tRNA (Roche, Mannheim, Germany), 0.25 mg/ml BSA, 2 mM MgCl₂ in 1× PBS, pH 7.4. The aptamer-protein complexes were captured on a Protran nitrocellulose membrane (GE Healthcare) that was pre-incubated in 0.4 M KOH for 10 minutes, followed by washing with 1× PBS containing 2 mM MgCl₂, pH 7.4. After addition of the aptamer-protein solution, the filter was washed 4 times with lx PBS containing 2 mM MgCl₂ using vacuum filtration. Residual radioactivity due to cMet bound labeled aptamers was quantified using Fujifilm Fla-3000 Phosphorlmager and AIDA software. The curves were fitted with GraphPadPrism 3.02 plotting non-linear regression curve and the IC₅₀ values have been calculated assuming a competition for single binding site.
(§2) To test the influence of lipid tails on aptamer binding, a competitive filter-binding assay was carried out using the methodology above. Varying concentrations of unlabeled 5′-lipid functionalized aptamer 3 and its two-point mutant variant trCLN3.mut-L4 (see Example 2.3) competed with a constant amount of ³²P-radio-labeled native trCLN3 aptamer in binding to cMet.

[2] = target: T1, cMet (HGFR) ectodomain, cMet-Fc; experiment: filter; almost no binding in filter retention assay; conditions: tags: Fc domain of human IgG1 fusion, R&D Systems; chain copies: 2
[3] = target: T1, cMet (HGFR) ectodomain, cMet-Fc; experiment: competition; no competition with 32P-trCLN3 within tested concentration range; conditions: tags: Fc domain of human IgG1 fusion, R&D Systems; chain copies: 2
Method: as §1, §2

B1: trCLN3-L4 (structured_DNA)
DNA: TGGATGGTAGCTCGGTCGGGGTGGGTGGGTTGGCAAGTCT
modifications: four 5-(1-dodecynyl)-2'-deoxyuridine (C12 lipid) residues at 5' end
With B1 the IC50 [1] was 43 nM.

B2: trCLN3.mut (ssDNA)
DNA: B1 DNA with G7A, G25A
B2: no binding [2].

B3: trCLN3.mut-L4 (ssDNA)
DNA: B1 DNA with G7A, G25A
modifications: four 5-(1-dodecynyl)-2'-deoxyuridine (C12 lipid) residues at 5' end
B3: no binding [3].
